Source: US20210324028A1 (Pfizer, published 2021)

T1: human CD122/CD132 on cells of human PBMCs (human, UniProt P14784 27-551; P31785 23-369)
T1 sequence (looked up) 1: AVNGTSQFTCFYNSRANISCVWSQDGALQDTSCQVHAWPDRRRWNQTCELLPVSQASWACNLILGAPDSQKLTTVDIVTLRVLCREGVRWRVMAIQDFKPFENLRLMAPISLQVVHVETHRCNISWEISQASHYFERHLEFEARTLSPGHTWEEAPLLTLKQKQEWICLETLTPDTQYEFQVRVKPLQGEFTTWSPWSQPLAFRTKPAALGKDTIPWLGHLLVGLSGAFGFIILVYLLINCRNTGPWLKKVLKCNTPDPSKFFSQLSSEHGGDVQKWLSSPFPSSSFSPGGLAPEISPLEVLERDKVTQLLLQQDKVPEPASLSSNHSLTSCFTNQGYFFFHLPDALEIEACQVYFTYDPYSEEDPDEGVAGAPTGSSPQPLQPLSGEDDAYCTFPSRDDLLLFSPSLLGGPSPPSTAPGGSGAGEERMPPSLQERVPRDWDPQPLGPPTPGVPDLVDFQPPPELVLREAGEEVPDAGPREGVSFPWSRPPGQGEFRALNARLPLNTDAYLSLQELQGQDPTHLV
T1 sequence (looked up) 2: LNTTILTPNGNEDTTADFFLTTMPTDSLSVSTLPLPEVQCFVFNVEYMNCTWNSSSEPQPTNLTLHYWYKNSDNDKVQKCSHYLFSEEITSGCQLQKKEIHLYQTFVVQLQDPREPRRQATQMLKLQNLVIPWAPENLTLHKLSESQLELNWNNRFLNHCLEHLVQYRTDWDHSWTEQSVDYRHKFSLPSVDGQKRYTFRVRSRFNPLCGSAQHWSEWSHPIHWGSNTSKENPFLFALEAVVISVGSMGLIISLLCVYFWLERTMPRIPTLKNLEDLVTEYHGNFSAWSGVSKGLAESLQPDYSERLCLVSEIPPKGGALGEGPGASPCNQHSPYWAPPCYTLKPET

T2: human IL-2Rβ (human, UniProt P14784 27-240, limits assumed)
T2 construct: also called hIL-2Rβ; IL-2 receptor beta
T2 sequence (looked up): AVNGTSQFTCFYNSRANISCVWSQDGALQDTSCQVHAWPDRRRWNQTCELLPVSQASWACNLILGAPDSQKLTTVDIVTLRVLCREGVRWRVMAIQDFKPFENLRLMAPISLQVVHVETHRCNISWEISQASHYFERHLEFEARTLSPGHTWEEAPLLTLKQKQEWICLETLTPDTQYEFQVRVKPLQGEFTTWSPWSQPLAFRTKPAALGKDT

T3: mouse PD-1 on doxycycline-induced 32D[pRF770+pRF791] cells (mouse, UniProt Q02242 25-288)
T3 sequence (looked up): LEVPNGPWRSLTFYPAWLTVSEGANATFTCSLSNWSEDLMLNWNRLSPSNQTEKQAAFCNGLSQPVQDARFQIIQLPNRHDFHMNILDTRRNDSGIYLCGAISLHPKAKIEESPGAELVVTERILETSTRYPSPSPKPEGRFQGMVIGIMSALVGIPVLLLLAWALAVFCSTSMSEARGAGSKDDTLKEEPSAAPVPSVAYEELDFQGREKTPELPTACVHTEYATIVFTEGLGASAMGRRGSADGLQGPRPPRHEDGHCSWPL

T4: IL-15 signaling receptor on 32D[pRF770+pRF791] cells (human CD122 plus mouse CD132) (human; mouse, UniProt P14784 27-551; P34902 23-369)
T4 sequence (looked up) 1: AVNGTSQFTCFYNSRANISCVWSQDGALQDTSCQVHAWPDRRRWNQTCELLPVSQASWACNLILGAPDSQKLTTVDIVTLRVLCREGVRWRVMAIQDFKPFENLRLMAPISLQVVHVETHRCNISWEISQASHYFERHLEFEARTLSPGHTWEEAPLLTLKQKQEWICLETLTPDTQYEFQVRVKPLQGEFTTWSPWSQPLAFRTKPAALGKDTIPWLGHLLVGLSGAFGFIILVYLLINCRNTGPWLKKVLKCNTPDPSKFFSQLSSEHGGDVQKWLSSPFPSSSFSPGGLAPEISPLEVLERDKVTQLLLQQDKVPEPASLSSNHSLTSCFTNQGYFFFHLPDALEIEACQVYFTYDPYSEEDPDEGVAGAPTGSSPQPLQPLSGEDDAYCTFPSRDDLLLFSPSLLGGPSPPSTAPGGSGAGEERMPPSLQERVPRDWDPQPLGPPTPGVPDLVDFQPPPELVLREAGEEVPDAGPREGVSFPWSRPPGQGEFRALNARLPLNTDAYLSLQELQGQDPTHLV
T4 sequence (looked up) 2: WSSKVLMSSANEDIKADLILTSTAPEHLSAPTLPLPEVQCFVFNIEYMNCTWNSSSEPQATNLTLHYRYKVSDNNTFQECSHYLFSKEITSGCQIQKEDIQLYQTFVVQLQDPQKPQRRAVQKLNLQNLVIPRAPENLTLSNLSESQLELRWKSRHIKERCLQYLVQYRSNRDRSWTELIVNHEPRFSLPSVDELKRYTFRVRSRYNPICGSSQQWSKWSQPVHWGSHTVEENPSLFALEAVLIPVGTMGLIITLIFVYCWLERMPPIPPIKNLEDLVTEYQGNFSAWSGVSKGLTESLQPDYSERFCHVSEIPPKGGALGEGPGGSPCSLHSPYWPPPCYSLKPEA


Tests used:
[1] = target: human PD-1 on cells of human PBMCs (human, UniProt Q15116 25-288); experiment: cell-based or functional assay
[2] = target: T1, human CD122/CD132 on cells of human …; experiment: cell-based or functional assay
human IL-2Rβ = target: T2, human IL-2Rβ; experiment: SPR, fusion captured
Outline: (§1)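 Anti-PD-1–hIL-15 fusions captured at 10 μg/mL on an anti-human Fc surface, receptor injected at 37 °C in HEPES-buffered saline with 0.05% Tween-20 and 1 mg/mL BSA, pH 7.4; 5 min dissociation.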

[3] = target: T3, mouse PD-1 on doxycycline-induced …; experiment: cell-based or functional assay
[4] = target: T4, IL-15 signaling receptor on …; experiment: cell-based or functional assay
human IL-15Rα = target: T5, human IL-15Rα (human, UniProt Q13261 31-205, limits assumed); experiment: SPR 37C, fusion captured by anti-human Fc
T5 construct: also called hIL-15Rα; IL-15 receptor alpha
Outline: as §1

Sequence of human PD-1 on cells of human PBMCs (Q15116 25-288): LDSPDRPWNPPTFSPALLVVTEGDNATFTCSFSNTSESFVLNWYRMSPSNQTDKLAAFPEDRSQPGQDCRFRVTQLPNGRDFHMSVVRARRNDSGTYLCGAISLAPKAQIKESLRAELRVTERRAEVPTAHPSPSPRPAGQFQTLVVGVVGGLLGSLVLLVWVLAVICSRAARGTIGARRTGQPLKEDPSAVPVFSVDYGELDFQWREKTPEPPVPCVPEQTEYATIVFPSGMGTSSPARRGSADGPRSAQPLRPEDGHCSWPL
T5 sequence (Q13261 31-205 limits assumed): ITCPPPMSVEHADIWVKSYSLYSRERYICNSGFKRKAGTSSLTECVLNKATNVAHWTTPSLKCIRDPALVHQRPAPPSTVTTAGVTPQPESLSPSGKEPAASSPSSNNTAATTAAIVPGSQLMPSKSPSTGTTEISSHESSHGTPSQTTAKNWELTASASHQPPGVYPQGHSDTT

Row | Binder | Fold change = EC50 (Isotype control--IL15)/EC50 (xhPD1--IL15), CD8+cm T cells [1] | Fold change = EC50 (Isotype control--IL15)/EC50 (xhPD1--IL15), NK cells [1] | pSTAT5 EC50 on human CD8+cm T cells (hPBMC) [1] | pSTAT5 EC50 on human NK cells (hPBMC) [2] | Kd (human IL-2Rβ) | Fold change = EC50 (PD-1(low))/EC50 (PD-1+) [3] | pSTAT5 EC50 on PD-1+ 32D reporter cells [3] | pSTAT5 EC50 on PD-1(low) 32D reporter cells [4] | binding result (human IL-15Rα)
1 | xhPD-1-IL15 m1 (other) heavy 1: not shown heavy 2: not shown light: DIQMTQSPSSLSASVGDRVTITCKSSQSLWDSGNQKNFLTWYQQKPGKAPKLLIYWTSYRESGVPSRFSGSGSGTDFTLTISSLQPEDFATYYCQNDYFYPLTFGGGTKVEIKRTVAAPSVFIFPPSDEQLKSGTASVVCLLNNFYPREAKVQWKVDNALQSGNSQESVTEQDSKDSTYSLSSTLTLSKADYEKHKVYACEVTHQGLSSPVTKSFNRGEC | 47 fold | 1.99 fold | 78 pM | 0.475 nM | – | – | – | – | –
2 | xhPD-1-IL15 m2 (other) heavy 1: not shown heavy 2: not shown light: DIQMTQSPSSLSASVGDRVTITCKSSQSLWDSGNQKNFLTWYQQKPGKAPKLLIYWTSYRESGVPSRFSGSGSGTDFTLTISSLQPEDFATYYCQNDYFYPLTFGGGTKVEIKRTVAAPSVFIFPPSDEQLKSGTASVVCLLNNFYPREAKVQWKVDNALQSGNSQESVTEQDSKDSTYSLSSTLTLSKADYEKHKVYACEVTHQGLSSPVTKSFNRGEC | 76.5 fold | 1.36 fold | 0.492 nM | 8.27 nM | – | – | – | – | –
3 | xmPD-1-hIL15 V49R/Y26K/E64Q/D30N (other, not restated for this mutant; also called xmPD1 -V49R/Y26K/E64Q/D30N) heavy 1: HHHHHHHHGGGGSGSGGEVQLVESGGGLVKPGGSLELSCAASGFTFSSYWMSWVRQAPEKGLEWVAAISPSGGSTYYADSVKGRFTISRDNAKNTLFLQMTSLRSEDTAMYYCAKESWGAYYDLWGQGTTVTVSSASTKGPSVFPLAPCSRSTSESTAALGCLVKDYFPEPVTVSWNSGALTSGVHTFPAVLQSSGLYSLSSVVTVPSSNFGTQTYTCNVDHKPSNTKVDKTVERKCRVRCPRCPAPPVAGPSVFLFPPKPKDTLMISRTPEVTCVVVAVSHEDPEVQFNWYVDGVEVHNAKTKPREEQFNSTFRVVSVLTVVHQDWLNGKEYKCKVSNKGLPSSIEKTISKTKGQPREPQVYTLPPSREEMTKNQVSLTCLVKGFYPSDIAVEWESNGQPENNYKTTPPMLDSDGSFFLYSRLTVDKSRWQQGNVFSCSVMHEALHNHYTQKSLSLSPGK heavy 2: EVQLVESGGGLVKPGGSLELSCAASGFTFSSYWMSWVRQAPEKGLEWVAAISPSGGSTYYADSVKGRFTISRDNAKNTLFLQMTSLRSEDTAMYYCAKESWGAYYDLWGQGTTVTVSSASTKGPSVFPLAPCSRSTSESTAALGCLVKDYFPEPVTVSWNSGALTSGVHTFPAVLQSSGLYSLSSVVTVPSSNFGTQTYTCNVDHKPSNTKVDKTVERKCEVECPECPAPPVAGPSVFLFPPKPKDTLMISRTPEVTCVVVAVSHEDPEVQFNWYVDGVEVHNAKTKPREEQFNSTFRVVSVLTVVHQDWLNGKEYKCKVSNKGLPSSIEKTISKTKGQPREPQVYTLPPSREEMTKNQVSLTCEVKGFYPSDIAVEWESNGQPENNYKTTPPMLDSDGSFFLYSKLTVDKSRWQQGNVFSCSVMHEALHNHYTQKSLSLSPGSGGGGGTSATATPGANWVNVISDLKKIEDLIQSMHIDATLKTESNVHPSCKVTAMKCFLLELQRISLESGDASIHDTVQNLIILANNSLSSNGNVTESGCKECEELEEKNIKEFLQSFVHIVQMFINT light: DIVMTQSPSSLSVSAGDKVTMSCRASQGISSWLAWYQQKPWQPPKLLIYKASTLESGVPDRFTGSGSGTDFTLTISSVQAEDLAVYYCQQSYSTPWTFGGGTKLEIKGTVAAPSVFIFPPSDEQLKSGTASVVCLLNNFYPREAKVQWKVDNALQSGNSQESVTEQDSKDSTYSLSSTLTLSKADYEKHKVYACEVTHQGLSSPVTKSFNRGEC | – | – | – | – | > 1.5 µM | 382 fold | 56.1 pM | 21.4 nM | no binding (tested: 3000 nM)
